{"source": "paper PMC7926950", "about": "“Constructing an Efficient Bacillus subtilis Spore Display by Using Cohesin−Dockerin Interactions” (Molecules, 2021)", "substrate": "O=[N+]([O-])c1ccccc1O[C@@H]1O[C@H](CO)[C@H](O)[C@H](O)[C@H]1O", "assay": "purified protein", "format": "biochemical, Geobacillus kaustophilus", "conditions": "free enzyme, not displayed on spores, ONPG 0.83-20 mM, general assay printed as 20 mM potassium phosphate pH 6.0, 75 °C (spore assay)", "data": [{"protein": "Bsβ–Gal (Geobacillus kaustophilus) (protein, full-length bgaB in pET-28a (PCR from pJS-cotY-bgaB), expressed in E. coli BL21(DE3), heat treatment and Ni-NTA, free enzyme; printed as tetrameric) MNVLSSICYGGDYNPEQWPEEIWYEDAKLMQKAGVNLVSLGIFSWSKIEPSDGVFDFEWLDKVIDILYDHGVYINLGTATATTPAWFVKKYPDSLPIDESGVILSFGSRQHYCPNHPQLITHIKRLVRAIAERYKNHPALKMWHVNNEYACHVSKCFCENCAVAFRKWLKERYKTIDELNERWGTNFWGQRYNHWDEINPPRKAPTFINPSQELDYYRFMNDSILKLFLTEKEILREVTPDIPVSTNFMGSFKPLNYFQWAQHVDIVTWDSYPDPREGLPIQHAMMNDLMRSLRKGQPFILMEQVTSHVNWRDINVPKPPGVMRLWSYATIARGADGIMFFQWRQSRAGAEKFHGAMVPHFLNENNRIYREVTQLGQELKKLDCLVGSRIKAEVAIIFDWENWWAVELSSKPHNKLRYIPIVEAYYRELYKRNIAVDFVRPSDDLTKYKVVIAPMLYMVKEGEDENLRQFVANGGTLIVSFFSGIVDENDRVHLGGYPGPLRDILGIFVEEFVPYPETKVNKIYSNDGEYDCTTWADIIRLEGAEPLATFKGDWYAGLPAVTRNCYGKGEGIYVGTYPDSNYLGRLLEQVFAKHHINPILEVAENVEVQQRETDEWKYLIIINHNDYEVTLSLPEDKIYQNMIDGKCFRGGELRIQGVDVAVLREHDEAGKV", "values": [{"measurement": "Km", "result": "2970 ± 50", "unit": "µM"}]}]}
